Experimental data reported in PMC1238745 (2005).

How the values were obtained:
Test in all cases: NMR
Bak BH3 peptide BH3 = biological target: T1, Bak BH3 peptide BH3 (Homo sapiens, UniProt Q16611)
T1 chain: GQVGRQLAIIGDDINR

Bax BH3 peptide BH3 = biological target: T2, Bax BH3 peptide BH3 (Homo sapiens, UniProt Q07812)
T2 chain: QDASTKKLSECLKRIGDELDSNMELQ

Bad BH3 peptide BH3 = biological target: T3, Bad BH3 peptide BH3 (Homo sapiens, UniProt Q92934)
T3 chain: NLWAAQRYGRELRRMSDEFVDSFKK

B1: v-Bcl-2 (protein)
chain: MSHKKSGTYWATLITAFLKTVSKVEELDCVDSAVLVDVSKIITLTQEFRRHYDSVYRADYGPALKNWKRDLSKLFTSLFVDVINSGRIVGFFDVGRYVCEEVLCPGSWTEDHELLNDCMTHFFIENNLMNHFPLEDIFLAQRKFQTTGFTFLLHALAKVLPRIYSGNVIYV
B1 was tested, and the Kd (Bak BH3 peptide BH3) was < 5 µM, the Kd (Bax BH3 peptide BH3) was < 5 µM and the Kd (Bad BH3 peptide BH3) was > 300 µM.
